Reference: patent US20230174642A1, “AFFINITY-MATURATED ANTI-ASIC1a ANTIBODIES” (SHANGHAITECH UNIVERSITY, priority 2019, published 2023)

T1: hASIC1a-mCherry fusion on a stable cell line (human, UniProt P78348 1-528)
T1 sequence (looked up): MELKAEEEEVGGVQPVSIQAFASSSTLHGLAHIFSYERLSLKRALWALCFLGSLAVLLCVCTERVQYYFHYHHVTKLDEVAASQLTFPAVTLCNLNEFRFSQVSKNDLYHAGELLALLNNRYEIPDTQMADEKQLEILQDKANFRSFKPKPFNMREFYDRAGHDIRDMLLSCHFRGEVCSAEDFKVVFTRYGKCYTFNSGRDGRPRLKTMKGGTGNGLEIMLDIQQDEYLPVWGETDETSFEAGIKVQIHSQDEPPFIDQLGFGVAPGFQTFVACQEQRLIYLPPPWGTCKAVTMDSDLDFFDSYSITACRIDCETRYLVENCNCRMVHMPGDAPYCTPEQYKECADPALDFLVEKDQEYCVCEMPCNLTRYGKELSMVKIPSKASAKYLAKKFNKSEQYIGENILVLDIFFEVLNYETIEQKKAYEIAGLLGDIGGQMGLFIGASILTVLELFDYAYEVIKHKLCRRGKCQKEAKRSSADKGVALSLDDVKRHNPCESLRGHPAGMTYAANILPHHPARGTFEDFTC

T2: recombinant extracellular domain of hASIC1a (hASIC1a-ECD) (human, UniProt P78348 67-427, limits assumed)
T2 construct: extracellular domain; ASIC1a is one splice isoform of it; also called trimeric ectodomain of hASIC1a
T2 sequence (looked up): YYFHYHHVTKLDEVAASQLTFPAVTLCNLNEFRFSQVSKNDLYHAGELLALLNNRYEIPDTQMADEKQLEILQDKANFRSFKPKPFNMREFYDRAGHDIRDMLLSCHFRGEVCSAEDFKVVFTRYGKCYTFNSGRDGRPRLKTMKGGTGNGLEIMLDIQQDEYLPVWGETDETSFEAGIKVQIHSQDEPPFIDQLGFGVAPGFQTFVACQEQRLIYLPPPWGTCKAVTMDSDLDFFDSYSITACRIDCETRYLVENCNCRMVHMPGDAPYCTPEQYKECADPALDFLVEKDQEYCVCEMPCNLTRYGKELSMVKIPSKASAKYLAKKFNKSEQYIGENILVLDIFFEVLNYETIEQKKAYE

T3: human ASIC1a (hASIC1a-eYFP) (Homo sapiens, UniProt P78348)
T3 construct: expressed in transfected cells; host or cells: CHO-K1 (transient)
T3 sequence (P78348 1-528): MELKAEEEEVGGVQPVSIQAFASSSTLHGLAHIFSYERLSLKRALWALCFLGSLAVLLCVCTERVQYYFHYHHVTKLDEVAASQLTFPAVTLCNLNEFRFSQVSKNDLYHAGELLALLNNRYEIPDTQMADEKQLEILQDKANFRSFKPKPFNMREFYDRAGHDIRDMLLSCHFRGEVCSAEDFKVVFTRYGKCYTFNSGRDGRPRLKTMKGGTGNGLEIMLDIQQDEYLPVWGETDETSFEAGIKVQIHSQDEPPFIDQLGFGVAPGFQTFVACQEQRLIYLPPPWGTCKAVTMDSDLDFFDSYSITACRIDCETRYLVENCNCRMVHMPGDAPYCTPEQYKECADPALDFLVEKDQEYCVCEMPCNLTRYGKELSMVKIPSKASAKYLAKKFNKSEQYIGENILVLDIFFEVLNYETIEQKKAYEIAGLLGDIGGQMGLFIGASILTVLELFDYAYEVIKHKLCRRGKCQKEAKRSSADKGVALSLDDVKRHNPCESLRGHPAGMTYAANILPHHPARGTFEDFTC

T4: mouse ASIC1a (mASIC1a-eYFP) (Mus musculus, UniProt Q6NXK8)
T4 construct: expressed in transfected cells; host or cells: CHO-K1 (transient)
T4 sequence (Q6NXK8 1-526): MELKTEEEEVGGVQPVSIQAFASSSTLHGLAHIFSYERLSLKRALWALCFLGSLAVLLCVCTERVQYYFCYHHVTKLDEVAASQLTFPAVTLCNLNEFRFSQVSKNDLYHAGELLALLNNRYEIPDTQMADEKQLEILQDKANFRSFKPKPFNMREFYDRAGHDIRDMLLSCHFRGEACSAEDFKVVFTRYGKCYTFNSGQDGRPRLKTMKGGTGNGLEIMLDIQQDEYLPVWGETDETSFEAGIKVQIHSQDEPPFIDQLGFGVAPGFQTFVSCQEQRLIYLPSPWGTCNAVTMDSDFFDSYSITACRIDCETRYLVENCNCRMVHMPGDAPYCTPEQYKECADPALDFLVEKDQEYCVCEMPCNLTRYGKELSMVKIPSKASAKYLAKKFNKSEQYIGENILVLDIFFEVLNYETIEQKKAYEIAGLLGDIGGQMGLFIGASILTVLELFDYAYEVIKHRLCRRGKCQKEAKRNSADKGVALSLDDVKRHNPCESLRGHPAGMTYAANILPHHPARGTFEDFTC

T5: rat ASIC1a (rASIC1a-eYFP) (Rattus norvegicus, UniProt P55926)
T5 construct: expressed in transfected cells; host or cells: CHO-K1 (transient)
T5 sequence (P55926 1-526): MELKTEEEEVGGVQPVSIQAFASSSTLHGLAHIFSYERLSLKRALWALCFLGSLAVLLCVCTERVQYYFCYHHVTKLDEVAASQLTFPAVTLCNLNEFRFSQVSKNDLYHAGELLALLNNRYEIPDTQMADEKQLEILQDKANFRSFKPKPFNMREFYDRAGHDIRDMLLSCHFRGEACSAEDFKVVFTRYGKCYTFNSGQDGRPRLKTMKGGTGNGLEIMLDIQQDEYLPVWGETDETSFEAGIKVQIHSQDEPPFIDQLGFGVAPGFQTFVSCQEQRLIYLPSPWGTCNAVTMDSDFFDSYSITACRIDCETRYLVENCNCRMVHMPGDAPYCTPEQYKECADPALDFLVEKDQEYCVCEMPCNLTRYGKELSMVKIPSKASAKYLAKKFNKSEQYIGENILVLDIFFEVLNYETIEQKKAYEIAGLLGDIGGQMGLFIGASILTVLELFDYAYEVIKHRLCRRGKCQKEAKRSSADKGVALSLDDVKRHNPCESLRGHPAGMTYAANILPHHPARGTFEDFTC


Key:
[1] = molecular target: T1, hASIC1a-mCherry fusion on a stable cell …; assay: cell-based or functional assay
[2] = molecular target: T2, recombinant extracellular domain of …; assay: SPR, Biacore T200, hASIC1a-ECD immobilized, IgG1 as analyte
Experimental: Binding affinities of four affinity-matured antibodies in IgG1 format (ASC06-01-IgG1 through ASC06-04-IgG1) to the recombinant extracellular domain of hASIC1a(hASIC1a-ECD) were measured using the Biacore T200™ (GE Healthcare). The ASC06-IgG1 antibody was used as a positive control. All manipulations were followed by the user guide of manufacturer. Briefly, was hASIC1a was immobilized, and serial dilutions of the indicated antibodies were added as analytes. The analysis of the results were processed in BIA Evaluation Software™.

[3] = molecular target: T3, human ASIC1a (hASIC1a-eYFP); assay: FACS-based binding assay, transiently transfected CHO-K1 cells (species selectivity); details: double positive population
Experimental: (§1) To investigate the species selectivity of ASC06-IgG1 affinity-matured antibodies, plasmids encoding fusion proteins of eYFP with […] homologs of ASIC1a were constructed. These plasmids included those encoding human ASIC1a (hASIC1a-eYFP), mouse ASIC1a (mASIC1a-eYFP), and rat ASIC1a (rASIC1a-eYFP). CHO-K1 cells were transiently transfected with the ASIC1a-eYFP plasmids, and a fluorescence activated cell sorting (FACS)-based binding assay was carried out to determine binding to the homologs or isoforms of ASIC1a expressed on the cell surface. An isotype control was used as a negative control for binding (NC). ASC06-IgG1 was used as a positive control. Summarily, the CHO-K1 cells expressing the ASIC1a-eYFP (green) homologs were stained with the indicated antibody (red) and subjected to FACS.

[4] = molecular target: T4, mouse ASIC1a (mASIC1a-eYFP); assay: as above; details: double positive population
Experimental: as §1

[5] = molecular target: T5, rat ASIC1a (rASIC1a-eYFP); assay: as above; details: double positive population
Experimental: as §1

Molecule | IC50 for the inhibition of acid induced ASIC1a-mediated calcium influx, FLIPR-based assay [1] | Kd [2] | koff [2] | kon [2] | binding to cells expressing hASIC1a-eYFP [3] | binding to cells expressing mASIC1a-eYFP [4] | binding to cells expressing rASIC1a-eYFP [5]
ASC06-03-IgG1 (antibody, V domains shown, Full length IgG1) VH: QVQLQQSGGGLVQPGGSLRLSCAASGFTFSSYAMSWVRQAPGKGLEWVSAISGSGGSTYYADSVKGRFTISRDNSKNTLYLQMNSLRAEDTAVYYCAKDSFYGRAKGSWGQGTLVTVSS VL: QSALTQPASVSGSPGQSITISCTGTSSDVGAYNYVSWYQQQPGKAPKLMIYGVSNRPSGVSNRFSGSKSGNAASLTISGLQAEDEADYYCSSYTSSSTYVFGTGTKLTVLG | 2.61 nM | 0.12 nM | 8.2e-05 s⁻¹ | 680000 M⁻¹ s⁻¹ | – | – | –
ASC06-03-IgG1: affinity-matured ASC06 derivative, VH-CDR3 DSFYGRAKGS (SEQ ID NO: 15) (antibody, V domains shown) VH: QVQLQQSGGGLVQPGGSLRLSCAASGFTFSSYAMSWVRQAPGKGLEWVSAISGSGGSTYYADSVKGRFTISRDNSKNTLYLQMNSLRAEDTAVYYCAKDSFYGRAKGSWGQGTLVTVSS VL: QSALTQPASVSGSPGQSITISCTGTSSDVGAYNYVSWYQQQPGKAPKLMIYGVSNRPSGVSNRFSGSKSGNAASLTISGLQAEDEADYYCSSYTSSSTYVFGTGTKLTVLG | – | – | – | – | bound | bound | bound
ASC06-04-IgG1: affinity-matured ASC06 derivative, VH-CDR3 DSFYGRAKGV (SEQ ID NO: 17) (antibody, V domains shown) VH: QVQLQQSGGGLVQPGGSLRLSCAASGFTFSSYAMSWVRQAPGKGLEWVSAISGSGGSTYYADSVKGRFTISRDNSKNTLYLQMNSLRAEDTAVYYCAKDSFYGRAKGVWGQGTLVTVSS VL: QSALTQPASVSGSPGQSITISCTGTSSDVGAYNYVSWYQQQPGKAPKLMIYGVSNRPSGVSNRFSGSKSGNAASLTISGLQAEDEADYYCSSYTSSSTYVFGTGTKLTVLG | – | – | – | – | bound | bound | bound
ASC06-01-IgG1: affinity-matured ASC06 derivative, VH-CDR3 DSYFGYSKGD (SEQ ID NO: 11) (antibody, V domains shown) VH: QVQLQQSGGGLVQPGGSLRLSCAASGFTFSSYAMSWVRQAPGKGLEWVSAISGSGGSTYYADSVKGRFTISRDNSKNTLYLQMNSLRAEDTAVYYCAKDSYFGYSKGDWGQGTLVTVSS VL: QSALTQPASVSGSPGQSITISCTGTSSDVGAYNYVSWYQQQPGKAPKLMIYGVSNRPSGVSNRFSGSKSGNAASLTISGLQAEDEADYYCSSYTSSSTYVFGTGTKLTVLG | – | – | – | – | bound | bound | bound
ASC06-IgG1: parental (WT) ASIC1a-specific antagonist antibody; VL SEQ ID NO: 2, VH SEQ ID NO: 7, VH-CDR3 DSFYGYSKGD (antibody, V domains shown, IgG1 constant regions; Amino acid sequence VH of ASC06; Amino acid sequence VL of ASC06) VH: QVQLQQSGGGLVQPGGSLRLSCAASGFTFSSYAMSWVRQAPGKGLEWVSAISGSGGSTYYADSVKGRFTISRDNSKNTLYLQMNSLRAEDTAVYYCAKDSFYGYSKGDWGQGTLVTVSS VL: QSALTQPASVSGSPGQSITISCTGTSSDVGAYNYVSWYQQQPGKAPKLMIYGVSNRPSGVSNRFSGSKSGNAASLTISGLQAEDEADYYCSSYTSSSTYVFGTGTKLTVLG | – | – | – | – | bound | bound | bound
ASC06-02-IgG1: affinity-matured ASC06 derivative, VH-CDR3 DSFFGRAKGS (SEQ ID NO: 13) (antibody, V domains shown) VH: QVQLQQSGGGLVQPGGSLRLSCAASGFTFSSYAMSWVRQAPGKGLEWVSAISGSGGSTYYADSVKGRFTISRDNSKNTLYLQMNSLRAEDTAVYYCAKDSFFGRAKGSWGQGTLVTVSS VL: QSALTQPASVSGSPGQSITISCTGTSSDVGAYNYVSWYQQQPGKAPKLMIYGVSNRPSGVSNRFSGSKSGNAASLTISGLQAEDEADYYCSSYTSSSTYVFGTGTKLTVLG | – | – | – | – | bound | bound | bound
ASC06-01-IgG1 (antibody, V domains shown, Full length IgG1) VH: QVQLQQSGGGLVQPGGSLRLSCAASGFTFSSYAMSWVRQAPGKGLEWVSAISGSGGSTYYADSVKGRFTISRDNSKNTLYLQMNSLRAEDTAVYYCAKDSYFGYSKGDWGQGTLVTVSS VL: QSALTQPASVSGSPGQSITISCTGTSSDVGAYNYVSWYQQQPGKAPKLMIYGVSNRPSGVSNRFSGSKSGNAASLTISGLQAEDEADYYCSSYTSSSTYVFGTGTKLTVLG | 2.24 nM | 0.1 nM | 0.000997 s⁻¹ | 9.7e+06 M⁻¹ s⁻¹ | – | – | –
ASC06-04-IgG1 (antibody, V domains shown, Full length IgG1) VH: QVQLQQSGGGLVQPGGSLRLSCAASGFTFSSYAMSWVRQAPGKGLEWVSAISGSGGSTYYADSVKGRFTISRDNSKNTLYLQMNSLRAEDTAVYYCAKDSFYGRAKGVWGQGTLVTVSS VL: QSALTQPASVSGSPGQSITISCTGTSSDVGAYNYVSWYQQQPGKAPKLMIYGVSNRPSGVSNRFSGSKSGNAASLTISGLQAEDEADYYCSSYTSSSTYVFGTGTKLTVLG | – | 0.26 nM | 0.000163 s⁻¹ | 620000 M⁻¹ s⁻¹ | – | – | –
